Measured values: the DeepSol protein solubility set

Experiment: soluble on expression in E. coli; label from the status in PepcDB or PDB records

With “PFKESQARGLLQDNMANSYNGGDFEDGLLNLSKEVFPTDKYLYQDGQFLDKKTINAYLNPKYTKREIDKMSEKDKKDKKANENLGLNPSHEGETNPEKIAEKSPAYLSNILEQDFYGGGDTKGKNIKGMTIGLAMNSVYYYKKEKDGPTFSKKLDDSEVKKQGKQMASEILSRLRENDDLKDIPIHFAIYKQSSEDSITPGEFITQATAEKSQTKLNEWHNINEKSALLPSSTAADYDENLNNNFKQFNDNLQSYFSNFTQAVGKVKFVDKKPQRLVVDLPIDYYGQAETIGITQYVTEQANKYFDKIDNYEIRIKDGNQPRALISKTKDDKEPQV” as the sequence, how does the “soluble on expression in E. coli” value read?
Its value is “not soluble”.

For “MEIIRSNFKINLHKVYQAIEEADFFAIDGEFSGISNGPSVTALTSGFDTPEERYQKLKKHSMDFLLFQFGLCAFKYDHTDSKHVTKSFNFYVFPKPFSRSSPDVKFVCQSSSIDFLASQGFDFNKVFCSGIPYLNQEEERQLREQFDEKRSQANGAGALAKCPVTIPEDQKKFIDQVIEKIEDFLQSEEKRSLELDPCTGFQRKLIYQTLSWKYPKGIHVETLETDKKERHIVISKVDEEERKRREQEKYTKEQEELNDAVGFSRVIHAIANSGKLVVGHNMLLDVMHTIHQFYCPLPADLNEFKEMAICVFPRLLDTKLMASTQPFKDIINNTSLAELEKRLKETPFDPPKVESAEGFPSYDTASEQLHEAGYDAYITGLCFISMANYLGSLLSPPKMCVSARSKLIEPFFNKLFLMRVMDIPYLNLEGPDLQPKRDHVLHVTFPKEWKTSDLYQLFSAFGNIQISWIDDTSAFVSLSQPEQVQIAVNTSKYAESYRIQTYAEYVGKKQKGKQVKRKWTEDSWKEVDRKRPHMQGPCYHSNSFTAAGMLGKRTLSPDPREAALEDRESEEVSDSELEQTDSCTDPLPEGRKKSKKLKRMKKELSLAGSVSDSPAVLFEVPDTW”, which “soluble on expression in E. coli” value is on record?
The value was “soluble”.

Which “soluble on expression in E. coli” value does the source give for “MAHLLQLHHVSKSYREKKAIDDLTITIPNGKIIGLLGPNGSGKTTLIKLINGLLQPNKGEIVIDGYRPCVETKKIISYLPDTTYLNENMRIKDMLEFFSDFYSDFDKSKATSLLRDLELDPEDRFKTLSKGNKEKVQLILVMSRKARLYVLDEPIGGVDPAARDYILKTIINSYCENASVIISTHLISDIEPILDEVIFLKQGRLFLSGNADDLRQEYQQSIDSLFRETYKV” here?
The value was “not soluble”.

For “MGSDKIHHHHHHMRRKIPSTAALICFEAAARNESFTKAAQELALTQGAVCRQIGGLEAFLNVELFRRSRRGVRLTEAGLSYSRQVAAQLDAVERDTLSVMRQQGANVIELAVVPTFGTQWLLPRLKDFQQRHPEVTVNLTNRTRPFLFADTTFDAAIYFGDADWSGTQSHQLMGENPVPVCSPALLNGQGMLEARHIAQLPLLQQSTRPYAWRQWFGSVGMNVERDMTGPRYELFSMLAQAAMHDMGIALIPPFLIQRELEEGRLVVANRHALSSDKAYYLMIPERKVESASLRAFRDWLVSQAQAYINSSGTNAAN”, which “soluble on expression in E. coli” value is on record?
Its value is “not soluble”.

For “MATIGTFKKSGNEFSGEIVTLSVQAKGVRIVPESNRSGDNAPSHRVYVGRAEIGAAWSKTSNEGREYLGLKLDDPSFTAPIYANLFDDEEGDTFSLIWSRAAKRNGD”, which “soluble on expression in E. coli” value is on record?
Its value is “not soluble”.

Which “soluble on expression in E. coli” value does the source give for “MSLSKFVLGGLWPETGSLAYLAPPELAAEKLAVKDINDAGGVLGNKITTVDADTSDADHADQNTSAAQSVLSKNPSFIIGPASSSVVKNTYKSITSQNIPMLSMGATSASFSGLSDYFFRTVAPDTVQGAVMGNLIAQDGVQKLAIAVFNDEYGTGLRDTIVKTASAAGVDIIYGEKDTFDPTETNFSSIATAIKASNPDATLVIAFDQTKPLLKALASAGVNTKKLYFVDGNTSDYSSELDAGLLEGSKGTIPGINPSDDFVKRLESTGVDLKNTTTYGAETYDGIILAALAAQKGGSADGKTIQANMAAVSGSTKGEKCDSYKACVALLKDGKEIQYKGQTSIGAFNDAHDPSSASIGVYKYDADNKPVFDHSQEGSVPKAEGHHHHHH” here?
Its value is “soluble”.

Which “soluble on expression in E. coli” value does the source give for “MSLALSRIDGQDELFVGGLWALRRSDSLTDRRITHVLSLVPFDISSLKNFKDEPWIDYGKDFRHQLIDIDDVEDSDLLIELPKAVRFIEEGLGANYMEHADDDGGVSLEKDVDVVEKKRKKKGGVFVHCAVGKSRSVSAVIAYLLRRYPSRFDPNITPTAISDPSQSTGSETSAEKRSRKETAQEAVHAALTYVRRTRPMAEPNEGFMEQLALWWEMEEGHHHHHH” here?
Its value is “not soluble”.

With “MSLNFPHLSKQSLGLYPVVDDVSWIERLLPLGINTIQLRIKDPYQPDLEQQIARAIELGRQYDAQVFINDYWQLAIKHGAFGVHLGQEDIEDSNLSQLSTAGICLGLSTHGYYELLRIVQINPSYIALGHIFSTTTKQMPSKPQGLVRLALYQKLNDSIPYGESVGYPTVAIGGIDQSNAEQVWQCGVSSLAVVRAITLSESPKQVIEFFDQLMNTTSTSLVMEDYRAYEGHHHHHH” as the sequence, how does the “soluble on expression in E. coli” value read?
Its value is “not soluble”.

For “VLHAIEPLNLGPKPIFVHEQGLLVEWIDGITLTKDGIELEELLPIAATIHQYHSSSIPVVPFSYISRIDHYWLELEGKYVGSEFETLYKQWRSEPSVEQIPLALCHFDLGCYNLVRGDQGVKVIDWEYASLADPRLDL”, which “soluble on expression in E. coli” value is on record?
Its value is “not soluble”.

Which “soluble on expression in E. coli” value does the source give for “MICNNQREFDNSLKCYQTALVTSQWTVRIRNLNWVLQEKVKSLYVEYQIWRGIDQTNKANPNTLRTNLDQVLAQLETFPTASASPIDSGSAGQLTPFHRSHFHPYKDNKRMRFPSNKEGGLCNSLLSSHYEWC” here?
Its value is “not soluble”.

Which “soluble on expression in E. coli” value does the source give for “MEHIEIRVSATGSMSSFHALCSFHQWPINVACSCWLSHCYRIYSLYPPQLVSCSDRLSTSGNTNAGAEFVTE” here?
The value was “soluble”.

With “MYGSEGGAMRIVAGVGENRNMERAASLADFEVDLVHSEEEFIEELRRGAAAYVRGSLPAANIMAELKKGGPLNRASWIEVGANGFLLAPVGIDEGRTVDDRFKIAVSASEFLRKTGEEPRVGVISGGRRGDLGRSPEVDRSIHEGEFLTSMIKDKYRVRHYHILIEEAVADGCNVIIAPDGITGNLIFRSLVLVGTARSYGAVALGFDGIFVDTSRSQTAEGYLRALKFAHWLARGWNEDNE” as the sequence, how does the “soluble on expression in E. coli” value read?
The value was “soluble”.

With “NKSYRSTEQITNFAKALLPDGDQIQAFTRKGDLPKVMIRYGEDAALSSLRSEVEHQLKATNTVAVLTKDLAESKQVYQYLKRYTVTTLMADSDRTMPQGVIVMPIYLAKGLEFDAVVAYDVSATNYPDADSVGILYTIASRAMHHLTLLSIGDVSPLIAQLDPTLFTIEHQVRV” as the sequence, how does the “soluble on expression in E. coli” value read?
The value was “not soluble”.

With “MADPIDNNSGKYTVQRFPAVADPADPGYSRCTTWVQAVSHGFHQQRRDDEYLAKTLTAYQTDKRELTGVYVNGSVPDHSLGADVPVATYATMRKALNIGFGRQLEAHLVTAVTVRGTHRRNGILRGMITADLEAAKDDGLAMAALTASEASIYGRFGFGVATFERSIKVDTGPRFRLRGLPQGTVEVADPSVLLDVAPQVFERLQRLSPGSIDRQEYYRLVASGSIGHDGKPDTSVRCALHYDLSGSLDGYVSYRFKGWDHKPYTMEIVDLVAASNAAYLDLWRFLGSIDLIDEVTWVEAPVDDPLAWALEDPRCIEASEIRDMLWLRILDTPAALQARSFPVAGRLVLEVTDSLGLAGGTWVLESDGGAAAVVKEAAGETPDLSLDAADLGSIYLGAVSPVTLAAAGRIQEKTPGAALLAQQLFAVERSAHCLTHF” as the sequence, how does the “soluble on expression in E. coli” value read?
The value was “soluble”.

With “SMQEKIMRELHVKPSIDPKQEIEDRVNFLKQYVKKTGAKGFVLGISGGQDSTLAGRLAQLAVESIREEGGDAQFIAVRLPHGTQQDEDDAQLALKFIKPDKSWKFDIKSTVSAFSDQYQQETGDQLTDFNKGNVKARTRMIAQYAIGGQEGLLVLGTDHAAEAVTGFFTKYGDGGADLLPLTGLTKRQGRTLLKELGAPERLYLKEPTADLLDEKPQQSDETELGISYDEIDDYLEGKEVSAKVSEALEKRYSMTEHKRQVPASMFDDWWK” as the sequence, how does the “soluble on expression in E. coli” value read?
Its value is “soluble”.

Which “soluble on expression in E. coli” value does the source give for “MKMTLPFKPHVLALICSAGLCAASAGLYIKSRTVEAPVETQSTQLAVSDAAAVTLPATVSAPPVTPAVVKSAFSTAQIDQWVAPVALYPDALLSQVLMASTYPTNVAQAVQWSHDNPLKQGDAAIQAVSDQPWDASVKSLVAFPQLMALMGENPQWVQNLGDAFLAQPQDVMDSVQRLRQLAQQTGSLKSSTEQKVITTTKKTVPVTQTVTAPVIPSNTVSTANPVITEPATTVISIEPGNPDVVYIPNYNPTVVYGNWANTAYPPVYLPPPAGEPFVDSFVRGFGYSMGVATTYALFSSIDWDDDDHDHHHHDDDNYHHHDGGHRDGNGWQHNGDNINIDVNNFNRITGEHLTDKNMAWRHNPNYRNGVPYHDQDMAKRFHQTDVNGGMSATQLPAPTRDSQRQAAASQFQQRTHAAPVITRDTQRQAAAQRFNEAEHYGSYDDFRDFSRRQPLTQQQKDAARQRYQSASPEQRQAVHEKMQTNPQNQQRREAARERIQPASPEQRQAVREKMQTNPQIQQRRDAARERIQSASPEQRQVFKEKVQQRPLNQQQRDNARQRVQSASPEQRQVFREKVQESRPQRLNDSNHTARLNNEQRSAVRERLSERGARRLER” here?
Its value is “not soluble”.

Which “soluble on expression in E. coli” value does the source give for “MAGEKFQKKGKEKWKEKVWYTVEAPPYLGSKEVSVALGEDSNSMVNRVVEVPISELTGNFKKSNEKALFRITNCEGTKCKTIFIGHYIGDDYIRRLVRRRKERIDIIEDVKTSDNSIITVKIVVVTDGKVTNTKKFQIRKVLTDFILNKGLSLPYSEFVRYLIGDDIYNDMISATKDIYPLKKIEVRKSELVSLSGISEIHAGSQNSGEEPVVQNLEHHHHHH” here?
The value was “not soluble”.

With “LKSLKDVTDHKKVNANDEDYKYIDMWKRLYQGHYAEWHNLNYEHNGNPVNRRQLSMNLPKVTAKYMSKLLFNEKVKINIDDKAAEEFVLNVLKTNGFTKNMERYIEYGEAMGGFVIKVYHDGNKNVKISFATADCMYPLSNDSENVDECVIANSFHKNNKYYKLLEWNEWKGKEEKVYTITTELYQSDNPDELGGEVSLKLLFNDIEPVVPLPPLTRPTFIYIKPNIANNKNLTSPLGISIYANALDTLKTLDLMFDSYYQEFKLGKKKVLVPSSFVKTAVNLDGSTTQYFDSTDEAFFLYQGDQDADGKSVKDISVEIRSTEFIESINAMLRIYAMQVGLSAGTFTFDENGLKTATEVVSEKSETYQTKNSHSQLIEQGIKEMIVSILEVGKFIEAYSGDVVELDTITVDFDDSIAQDEDTTINRYTTAKNQGMIPLKIALQRAWNITDAEAEEWKEEIEKDARAEIPG” as the sequence, how does the “soluble on expression in E. coli” value read?
Its value is “not soluble”.

With “MSRFQTLTPASLSREAFIEAFADIYEHSPWVAEKAYDLGIDDSLNDIEGLHQRMADILLSASREAQLALINAHPDLAGKAAIRGELTASSTSEQAGAGIHECSAEEFARFTELNDAYKARFGFPFIKAVKGSNRHQILAAFEERIQHSADEEFATALAEINKIALFRLQQL” as the sequence, how does the “soluble on expression in E. coli” value read?
Its value is “not soluble”.

With “MNSPLPDVALTEVSSALIALDWVGMQGVEVPLTLGEQGATHPVHAYADLQVDLTDPSVKGIHMSRLYRLLDGFAEHQVLTPETLSALLEAMVESHVDCHSSGARITLTFNLLCRRPALVTEGLSGWKSYPVKLEAVWRAGRLCLDVSADITYSSTCPCSAALSRQLLEEAFVARFGRQSFVDPMQVAAWLRENASYATPHSQRSVATVQVRVAEQATEMGLMALIDTVEQALGTPVQTAVKRADEQAFARLNGQNLMYVEDAARKIQQALEGRYPASSVSVRHFESLHPHDAAAQTSSYLS” as the sequence, how does the “soluble on expression in E. coli” value read?
The value was “not soluble”.

For “MANTGCLSPGAFLSKVPEFFQTANEKHITVRLTAKRLIEHDPVEGNLEFDSTNHPDYDVSKKASEISVSSRSDREYPLLIRMSYGSHDKKTKCSTVVKASELDQFWQEYSSVFKGGMQNLIKKKKKKSKNGTISKTGKKNKVAKKN”, which “soluble on expression in E. coli” value is on record?
The value was “not soluble”.
